Experiments:
H1299 cells [1] = experiment: p53-dependent apoptosis (DAPI staining, abnormal nuclei); assay type: cell-based, human; conditions: H1299, cotransfection with p53, 48 hours (FIG. 36)
Experimental: (§1) To examine the influence of UFD2a on p73-dependent apoptosis, the following experiment was performed. p53-deficient H1299 cells were transiently cotransfected with the given combinations (HA-p73α, p53, and FLAG-UFD2a) of expression plasmids. After 48 hours of the transfection, the cells were fixed at room temperature for 30 minutes in 3.7% formaldehyde, then permeabilized at room temperature for 5 minutes with 0.2% Triton X-100, and blocked for 1 hour with 3% BSA. The cells were washed three times with 1×PBS and stained at room temperature for 20 minutes with DAPI (4′,6-diamidino-2-phenylindole; 1 μg/mL). Of the cells transfected with GFP, cells having abnormal nuclei were counted under a microscope.

H1299 cells [2] = experiment: p73-dependent apoptosis (DAPI staining, abnormal nuclei); assay type: cell-based, human; conditions: H1299, cotransfection with HA-p73α, 48 hours (FIG. 36)
Experimental: as §1

p53 = experiment: Amount of endogenous p53 in COS7 cells (immunoblot); assay type: cell-based, African green monkey; conditions: COS7, cisplatin 20 μg/mL for 24 hours (FIG. 35)
Experimental: To examine the influence of UFD2a on endogenous p73, the following experiment was performed. COS7 cells were transfected or untransfected with a FLAG-UFD2a expression plasmid. After 24 hours of the transfection, the cells were exposed to cisplatin (final concentration: 20 μg/mL) for 24 hours or left untreated. Whole cell lysates were prepared from the transfected cells and analyzed for p73α, p53, and UFD2a expression by immunoblot. Actin was utilized as a control for addition.

p73 [3] = biological target: T1, p73 (Homo sapiens, UniProt O15350); experiment: p73 protein level (stabilization) by immunoblot in cotransfected COS7 cells; assay type: cell-based; conditions: COS7 cotransfection (FIG. 14, 15, 29)
T1 construct: expressed in transfected cells; host or cells: COS7
T1 sequence (O15350 1-636): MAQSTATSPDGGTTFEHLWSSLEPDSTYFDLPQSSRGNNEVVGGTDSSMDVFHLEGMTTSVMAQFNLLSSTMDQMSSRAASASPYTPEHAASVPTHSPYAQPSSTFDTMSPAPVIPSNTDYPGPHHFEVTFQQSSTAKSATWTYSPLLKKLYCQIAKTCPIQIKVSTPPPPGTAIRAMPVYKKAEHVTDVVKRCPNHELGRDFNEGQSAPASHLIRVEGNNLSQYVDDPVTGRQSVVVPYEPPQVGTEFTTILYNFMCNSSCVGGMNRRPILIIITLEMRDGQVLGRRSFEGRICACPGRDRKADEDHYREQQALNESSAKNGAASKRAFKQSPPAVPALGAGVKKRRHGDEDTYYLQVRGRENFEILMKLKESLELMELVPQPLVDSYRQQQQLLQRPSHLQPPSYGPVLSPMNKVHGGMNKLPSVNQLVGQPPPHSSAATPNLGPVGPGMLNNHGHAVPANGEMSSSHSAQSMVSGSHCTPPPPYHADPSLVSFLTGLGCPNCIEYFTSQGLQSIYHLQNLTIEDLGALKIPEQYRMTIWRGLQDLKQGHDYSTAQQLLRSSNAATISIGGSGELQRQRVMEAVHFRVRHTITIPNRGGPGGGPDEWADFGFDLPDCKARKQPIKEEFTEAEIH
Experimental: Cells were transiently transfected with a total of 2 μg of expression plasmids. After 48 hours of the transfection, the cells were washed with ice-cold PBS and suspended in lysis buffer (pH 8.0; which contained 25 mM Tris-Cl, 137 mM sodium chloride, 1% Triton X-100, 1 mM phenylmethylsulfonyl fluoride (PMSF), and protease inhibitor mix (Roche Molecular Biochemicals)), followed by brief sonication. After centrifugation at 15000 rpm for 10 minutes, the supernatant was collected and assayed for protein concentrations by the Bradford assay (Bio-Rad). Equal amounts of lysates (protein amount: 50 μg) from the whole cells were denatured by boiling in Laemmli SDS-sample buffer, then separated on 10% SDS-polyacrylamide gel (SDS-PAGE), and transferred at room temperature for 1 hour to polyvinylidene difluoride (PVDF) membranes (Immobilon-P; Millipore) in Tris-glycine buffer containing 10% methanol. The membranes were blocked at room temperature for 1 hour with Tris-buffered saline (TBS-T) containing 5% skim milk and 0.1% Tween 20.
As previously reported, some protein kinases (e.g., c-Abl and PKCδ) that interact with p73 can stabilize p73. To confirm whether IKK-α influenced the stabilization of p73, COS7 cells were transfected with a constant amount of HA-p73α expression plasmid together with or without varying amounts of IKK-α expression plasmids and examined for HA-p73α protein levels. […] Next, whether IKK-β influenced the stabilization of p73 and p53 was investigated by transient transfection.

endogenous p53 = experiment: Amount of endogenous p53 in cisplatin-treated U2OS cells (immunoblot); assay type: cell-based, human; conditions: cisplatin 24 hours (FIG. 30)
U2OS or H1299 cells = experiment: Apoptosis induced by cisplatin in transfected cells; assay type: cell-based, human; conditions: U2OS and H1299 (FIGS. 31 and 33)
p73 [4] = biological target: T1, p73; experiment: Co-immunoprecipitation with p73 in transfected COS7 cells; assay type: binding; conditions: COS7, co-immunoprecipitation (FIG. 10, FIG. 28)
Experimental: Whole cell lysates were centrifuged at 15000 rpm for 15 minutes to remove cell debris. The obtained supernatant was pretreated at 4° C. for 30 minutes with protein G-Sepharose (50% slurry, 30 μL; Amersham Pharmacia Biotech). After centrifugation, the supernatant was incubated at 4° C. for 2 hours with an anti-HA polyclonal (Medical and Biological Laboratories) or anti-FLAG monoclonal antibody. The immunocomplexes were precipitated at 4° C. for 30 minutes with protein G-Sepharose beads. After collection by brief centrifugation, the immunoprecipitates were washed three times with lysis buffer, then suspended in 30 μL of 2×Laemmli SDS sample buffer, and treated at 100° C. for 5 minutes. The supernatant was loaded onto 10% SDS-PAGE and analyzed by immunoblot as described above.
To investigate whether IKK-α interacted with p73 in cultured mammal cells, whole cell lysates were prepared from transfected COS7 cells, then immunoprecipitated with an anti-FLAG or anti-HA antibody, and analyzed by immunoblot using an anti-p73 or anti-FLAG antibody, respectively. […] Likewise, HA-p73β was co-immunoprecipitated with FLAG-IKK-α (data not shown). […] To identify determinants of p73 participating in the interaction with IKK-α, several deletion mutants of p73 fused to GST were prepared and examined for their abilities to bind to FLAG-IKK-α by in-vitro pull-down assay. These mutants were designed on the basis of the functional domains of p73 including transactivation, DNA-binding, oligomerization, and SAM domains (FIG. 12).

B1: UFD2a: UFD2a protein, SEQ ID NO: 26, U-box ubiquitin protein ligase; apoptosis inhibitor (protein, listed as Homo sapiens)
chain: MEELSADEIRRRRLARLAGGQTSQPTTPLTSPQRENPPGPPIAASAPGPSQSLGLNVHNMTPATSPIGASGVAHRSQSSEGVSSLSSSPSNSLETQSQSLSRSQSMDIDGVSCEKSMSQVDVDSGIENMEVDENDRREKRSLSDKEPSSGPEVSEEQALQLVCKIFRVSWKDRDRDVIFLSSLSAQFKQNPKEVFSDFKDLIGQILMEVLMMSTQTRDENPFASLTATSQPIAAAARSPDRNLLLNTGSNPGTSPMFCSVASFGASSLSSLGASGGASNWDSYSDHFTIETCKETDMLNYLIECFDRVGIEEKKAPKMCSQPAVSQLLSNIRSQCISHTALVLQGSLTQPRSLQQPSFLVPYMLCRNLPYGFIQELVRTTHQDEEVFKQIFIPILQGLALAAKECSLDSDYFKYPLMALGELCETKFGKTHPVCNLVASLRLWLPKSLSPGCGRELQRLSYLGAFFSFSVFAEDDVKVVEKYFSGPAITLENTRVVSQSLQHYLELGRQELFKILHSILLNGETREAALSYMAAVVNANMKKAQMQTDDRLVSTDGFMLNFLWVLQQLSTKIKLETVDPTYIFHPRCRITLPNDETRVNATMEDVNDWLTELYGDQPPFSEPKFPTECFFLTLHAHHLSILPSCRRYIRRLRAIRELNRTVEDLKNNESQWKDSPLATRHREMLKRCKTQLKKLVRCKACADAGLLDESFLRRCLNFYGLLIQLLLRILDPAYPDITLPLNSDVPKVFAALPEFYVEDVAEFLFFIVQYSPQALYEPCTQDIVMFLVVMLCNQNYIRNPYLVAKLVEVMFMTNPAVQPRTQKFFEMIENHPLSTKLLVPSLMKFYTDVEHTGATSEFYDKFTIRYHISTIFKSLWQNIAHHGTFMEEFNSGKQFVRYINMLINDTTFLLDESLESLKRIHEVQEEMKNKEQWDQLPRDQQQARQSQLAQDERVSRSYLALATETVDMFHILTKQVQKPFLRPELGPRLAAMLNFNLQQLCGPKCRDLKVENPEKYGFEPKKLLDQLTDIYLQLDCARFAKAIADDQRSYSKELFEEVISKMRKAGIKSTIAIEKFKLLAEKVEEIVAKNARAEIDYSDAPDEFRDPLMDTLMTDPVRLPSGTIMDRSIILRHLLNSPTDPFNRQTLTESMLEPVPELKEQIQAWMREKQNSDH
p53-dependent apoptosis (H1299 cells [1]): could not suppress p53-dependent apoptosis | number of apoptotic cells, p73-dependent (H1299 cells [2]): decreased the number of apoptotic cells | amount of endogenous p53 (p53): no influence on the amount of endogenous p53

B2: IKK-α (K44A): IKK-α with 44th lysine substituted by alanine, SEQ ID NO: 25, lacking kinase activity; apoptosis inhibitor (protein)
chain: MERPPGLRPGAGGPWEMRERLGTGGFGNVCLYQHRELDLKIAIASCRLELSTKNRERWCHEIQIMKKLNHANVVKACDVPEELNILIHDVPLLAMEYCSGGDLRKLLNKPENCCGLKESQILSLLSDIGSGIRYLHENKIIHRDLKPENIVLQDVGGKIIHKIIDLGYAKDVDQGSLCTSFVGTLQYLAPELFENKPYTATVDYWSFGTMVFECIAGYRPFLHHLQPFTWHEKIKKKDPKCIFACEEMSGEVRFSSHLPQPNSLCSLIVEPMENWLQLMLNWDPQQRGGPVDLTLKQPRCFVLMDHILNLKIVHILNMTSAKIISFLLPPDESLHSLQSRIERETGINTGSQELLSETGISLDPRKPASQCVLDGVRGCDSYMVYLFDKSKTVYEGPFASRSLSDCVNYIVQDSKIQLPIIQLRKVWAEAVHYVSGLKEDYSRLFQGQRAAMLSLLRYNANLTKMKNTLISASQQLKAKLEFFHKSIQLDLERYSEQMTYGISSEKMLKAWKEMEEKAIHYAEVGVIGYLEDQIMSLHAEIMELQKSPYGRRQGDLMESLEQRAIDLYKQLKHRPSDHSYSDSTEMVKIIVHTVQSQDRVLKELFGHLSKLLGCKQKIIDLLPKVEVALSNIKEADNTVMFMQGKRQKEIWHLLKIACTQSSARSLVGSSLEGAVTPQTSAWLPPTSAEHDHSLSCVVTPQDGETSAQMIEENLNCLGHLSTIIHEANEEQGNSMMNLDWSWLTE
modifications: IKK-alpha(K44A)
amount of HA-p73α (p73 [3]): almost no effect on the intracellular level of exogenously expressed HA-p73α | amount of endogenous p53 (endogenous p53): no remarkable effect on the amount of endogenous p53 | apoptosis induced by cisplatin (U2OS or H1299 cells): remarkably inhibited | complex formation with HA-p73α (p73 [4]): maintained the ability to form complexes with p73α

From patent US7618787B2, “Method of screening compound capable of accelerating or inhibiting apoptosis, apoptosis accelarator and apoptosis inhibitor” (Hisamitsu Pharmaceutical Co., Inc., priority 2004, dated 2009)
